The values that follow come from patent publication US20170342107A1.

Square brackets hold non-standard residues; d marks the D form. Phe(4-I) = N[C@@H](Cc1ccc(I)cc1)C(=O)O

The target of assay [1] is mouse melanocortin-3 receptor (mouse) (UniProt P33033). Put plainly: cell-based or functional assay.
Assay [2] addresses mouse melanocortin-4 receptor (mouse) (UniProt P56450). The assay can be described thus: cell-based or functional assay.
Assay [3] shares this target. Put plainly: 125I-NDP-MSH competitive displacement, HEK293 cells stably expressing mMC4R.
For assay [4], the target named is mouse melanocortin-3 receptor (mouse) (UniProt P33033). Put plainly: 125I-NDP-MSH competitive displacement, HEK293 cells stably expressing mMC3R.
In assay [5] the target is mouse melanocortin-4 receptor (mouse) (UniProt P56450). The assay can be described thus: 125I-NDP-MSH competitive displacement, HEK293 cells stably expressing mMC4R; here negative = weaker binder than SKY4-48-1.
Chain of mouse melanocortin-4 receptor (mouse) (P56450 whole entry): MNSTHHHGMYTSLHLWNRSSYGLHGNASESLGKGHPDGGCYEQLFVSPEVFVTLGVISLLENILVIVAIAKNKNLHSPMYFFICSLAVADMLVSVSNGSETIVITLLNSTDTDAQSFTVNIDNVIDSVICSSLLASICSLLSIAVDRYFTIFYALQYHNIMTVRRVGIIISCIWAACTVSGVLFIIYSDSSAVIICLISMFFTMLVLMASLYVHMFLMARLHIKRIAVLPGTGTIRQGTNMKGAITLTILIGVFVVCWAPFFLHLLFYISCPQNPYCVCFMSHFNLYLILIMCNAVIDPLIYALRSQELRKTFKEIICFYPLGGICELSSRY

Chain of mouse melanocortin-3 receptor (mouse) (P33033 whole entry): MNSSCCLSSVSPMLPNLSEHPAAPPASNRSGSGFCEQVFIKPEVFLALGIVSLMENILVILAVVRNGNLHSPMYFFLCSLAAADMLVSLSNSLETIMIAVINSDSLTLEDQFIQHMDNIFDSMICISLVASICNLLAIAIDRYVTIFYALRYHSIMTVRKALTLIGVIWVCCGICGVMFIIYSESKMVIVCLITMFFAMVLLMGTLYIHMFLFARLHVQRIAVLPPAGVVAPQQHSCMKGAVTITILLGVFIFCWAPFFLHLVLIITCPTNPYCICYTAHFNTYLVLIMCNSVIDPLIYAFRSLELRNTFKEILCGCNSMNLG

B1: SKY5-122-2, Ac-DPhe-(pI)Phe-DArg-DHis-NH2 (peptide)
peptide: Ac-[dF][Phe(4-I)][dR][dH]-NH2
SMILES: CC(=O)N[C@H](Cc1ccccc1)C(=O)N[C@@H](Cc1ccc(I)cc1)C(=O)N[C@H](CCCNC(=N)N)C(=O)N[C@H](Cc1c[nH]cn1)C(N)=O
Regarding B1, in assay [1], the Agonist Activity EC50 was more than 100 µM, the Antagonist Activity K was found to be 400 nM, the Antagonist Ki worked out at 0.398 µM and the pA2 (antagonist) was determined as 6.4 pA2. In addition, in assay [2], the Agonist Activity, % stimulation relative to maximum came to 16 % @ 100 µM; the Agonist, % of NDP-MSH maximal response turned out to be 16 % @ 100 µM; the Antagonist Ki was more than 3.1 µM. The same molecule had a 50% inhibitory concentration (IC50) in assay [3] of 39.5 µM. In assay [4], this molecule showed a Fold Diff. (IC50 against SKY4-48-1) of 14 fold and an IC50 of 3.5 µM. In assay [5], this molecule yielded a Fold Diff. (IC50 against SKY4-48-1) of -326 fold.
